Test results from paper PMC2901339.
Like-named read-outs stand apart in the source and are kept apart here. Each block holds one molecule with its values, some of them ahead of it.

What was measured:
[1] = molecular target: coatomer protein I (COP-I), endogenous, HEK cells (human (endogenous in HEK-293)) (UniProt P53618); assay: co-IP; lysates of HEK cells transfected with V5 tagged constructs, immunoprecipitated with anti COP I antibody, blot with anti V5 antibody
[2] = molecular target: NF-PLN RΔ14 (rabbit) (UniProt P61015); assay: co-IP; lysates of transfected HEK cells, FLAG-tagged PLN constructs precipitated with anti-Flag antibody and Protein G-Sepharose, 4°C, 0.1% Triton-X100, blot with COP I antibody
[3] = molecular target: NF-R13E/R14E (N-terminally FLAG-tagged PLN R13E/R14E) (rabbit) (UniProt P61015); assay: as above
[4] = molecular target: coatomer protein I (COP-I), endogenous, HEK cells (human (endogenous in HEK-293)) (UniProt P53618); assay: co-IP; lysates of HEK cells transfected with V5 tagged constructs, immunoprecipitated with anti COP I antibody, blot with anti V5 antibody; remark: listed apart in the source

fold band intensity of the wild type over this mutant [1]: > 2 fold
Molecule: V5 tagged Sigma 1R R7E/R8E (from UniProt Q99720 1-223) (natural protein)

fold reduction in band intensity against NF-PLN [2]: 5 fold | fold reduction in band intensity against NF-PLN [3]: 5 fold
Molecule: coatomer protein I (COP-I), endogenous, HEK cells (from UniProt P53618 1-953) (complex)

fold band intensity of the wild type over this mutant [4]: > 2 fold
B1: V5 tagged SR β R7E/R8E (natural protein)
chain: MASADSEEVADGGGAGGTFQPYLDTLRQELQQTDPTLLSVVVAVLAVLLTLVFWKLIRSRRSSQRAVLLVGLCDSGKTLLFVRLLTGLYRDTQTSITDSCAVYRVNNNRGNSLTLIDLPGHESLRLQFLERFKSSARAIVFVVDSAAFQREVKDVAEFLYQVLIDSMGLKNTPSFLIACNKQDIAMAKSAKLIQQQLEKELNTLRVTRSAAPSTLDSSSTAPAQLGKKGKEFEFSQLPLKVEFLECSAKGGRGDVGSADIQDLEKWLAKIA
